Test [1] has as its target C3b (component obtained after hydrolysis of complement component 3, C3) (UniProt P01024). In words: BLI (Octet RED96), GFP tagged Nanofitin captured on anti-GFP Nanofitin biosensor, C3b in solution, 1:1 fit. In general terms: BLI is a label-free optical method that tracks binding on a fibre tip over time.
For test [2] the target is unchanged. In words: ELISA screen of optimized Nf1 variants. In general terms: ELISA stands for enzyme-linked immunosorbent assay.
For test [3] the target is unchanged. The test is described as follows: biolayer interferometry.
For test [4] the target is unchanged. The test is described as follows: biolayer interferometry; B10 by full chemical synthesis.
Test [5] shares this target. The test is described as follows: biolayer interferometry; B10 recombinant from E. coli; untagged B10, recombinant from E. coli.

Changes are numbered by the printed parent chain.

What is called Kd is the equilibrium constant for the complex coming apart. One may read the koff as the rate constant with which the complex falls apart. Low values mean a long-lived complex, high ones a short-lived complex. As usually defined, the kon is the second-order rate constant of association. Higher therefore signals fast association.

B1: B10 (SEQ ID NO: 25), GFP tagged anti-C3 Nanofitin (designed binder, not shown: large carriers)
chain: MVKVKFDATGEEKEVDTSKISAVYRTGKDVLFSYDDNGKIGWGYVSEKDAPKELLDLLARAERE
Regarding B1, in test [1], the equilibrium dissociation constant (Kd) is 7.31 nM, the off-rate constant (koff) is 0.000433 s⁻¹ and the kon turned out to be 59200 M⁻¹ s⁻¹. In test [2], the OD 450 nm is above 4 OD 450 nm.

B2: B10 Nanofitin with N-terminal peptide (10-mers) tag and C-terminal 30 kDa protein (designed binder, not shown: large carriers; small tags and cut ends)
chain: B1 chain
As for B2, the Kd in test [3] amounted to 7.3 nM.

B3: B10 Nanofitin without N- or C-terminal tag (designed binder)
chain: B1 chain
Take B3: the equilibrium dissociation constant (Kd) worked out at 18 nM in test [4] and 18.5 nM in test [5].

B4: B10 Nanofitin with N-terminal peptide (10-mers) tag (designed binder, not shown: small tags and cut ends)
chain: B1 chain
The molecule B4 gave a Kd in test [3] of 8.2 nM.

B5: B10 Nanofitin with N-terminal peptide (10-mers) tag and C-terminal peptide (15-mers) tag (designed binder, not shown: small tags and cut ends)
chain: B1 chain
Molecule B5 yielded an equilibrium dissociation constant (Kd) in test [3] of 2.5 nM.

B6: H03 (SEQ ID NO: 26), GFP tagged anti-C3 Nanofitin (designed binder, not shown: large carriers)
chain: B1 chain with D7A, S21A, A22N, T26V
As to B6, in test [1], the equilibrium dissociation constant (Kd) came to 2.89 nM, the off-rate constant (koff) is 0.000188 s⁻¹ and the kon was 65200 M⁻¹ s⁻¹. In addition, in test [2], the OD 450 nm was above 4 OD 450 nm.

B7: B10 Nanofitin with N-terminal peptide (10-mers) tag and C-terminal Nanofitin (designed binder, not shown: small tags and cut ends)
chain: B1 chain
The molecule B7 showed a Kd in test [3] of 11.5 nM.

B8: B10 Nanofitin with N-terminal 48 kDa protein (designed binder, not shown: small tags and cut ends)
chain: B1 chain
The molecule B8 gave a Kd in test [3] of 6.7 nM.
